The text below walks through data of patent US11433139B2, “Peptide vaccines against interleukin-31” (Zoetis Services LLC, priority 2018, dated 2022).

Test [1] concerns full length feline IL-31. The test is described as follows: Cat serology study, serum titers by indirect ELISA to feline IL-31. The test is classed as in vivo. The conditions noted are these: laboratory cats, 10 μg/dose s.c. days 0, 28, 56, Bay R1005 and CpG adjuvant mixture. As to the method: 2.9. Serum titers to IL-31 following immunization of laboratory cats with IL-31 feline and equine mimotopes and full length feline IL-31 protein A serology study was performed using laboratory cats like the study design described herein in section 2.3 however in this study feline and equine mimotopes were compared. Laboratory cats were subcutaneously administered the conjugated IL-31 mimotopes adjuvanted with a mixture including the glycolipid adjuvant Bay R1005 (N-(2-Deoxy-2-L-leucylamino-β-D-glucopyranosyl)-N-octadecyldodecanoylamidehydroacetate) as well as CpG oligonucleotides. A control group was included containing CRM-197 conjugated feline IL-31 (SEQ ID NO: 157; Feline_IL31_wildtype), the corresponding nucleotide sequence for which is (SEQ ID NO: 158; Feline_IL-31_wildtype) in an adjuvant mixture including the glycolipid adjuvant Bay R1005 (N-(2-Deoxy-2-L-leucylamino-β-D-glucopyranosyl)-N-octadecyldodecanoylamidehydroacetate) as well as CpG oligonucleotides. (T01). 10 μg/dose of each adjuvanted mimotope or control was administered subcutaneously on days 0, 28, and 56 (0.5 ml of a 20 μg/ml solution). Blood for serum was taken on day −14, 0 (pre-dose), 28 (pre-dose), 42, 56 (pre-dose), 70, and 84. In addition, on days 35 and 63, approximately 40 mls of blood was collected from each animal into lithium heparin tubes and processed for PBMC isolation using a standard method. […]
For orientation: In an ELISA, binding on a coated surface is turned into a signal by an enzyme label.

Test [2] relates to mAb ZTS-361. In words: Peptide block of mAb ZTS-361 inhibition of IL-31 mediated STAT3 phosphorylation in feline FCWF-4 macrophages. The test is classed as cell-based.
Sequence of mAb ZTS-361 (as listed by the source): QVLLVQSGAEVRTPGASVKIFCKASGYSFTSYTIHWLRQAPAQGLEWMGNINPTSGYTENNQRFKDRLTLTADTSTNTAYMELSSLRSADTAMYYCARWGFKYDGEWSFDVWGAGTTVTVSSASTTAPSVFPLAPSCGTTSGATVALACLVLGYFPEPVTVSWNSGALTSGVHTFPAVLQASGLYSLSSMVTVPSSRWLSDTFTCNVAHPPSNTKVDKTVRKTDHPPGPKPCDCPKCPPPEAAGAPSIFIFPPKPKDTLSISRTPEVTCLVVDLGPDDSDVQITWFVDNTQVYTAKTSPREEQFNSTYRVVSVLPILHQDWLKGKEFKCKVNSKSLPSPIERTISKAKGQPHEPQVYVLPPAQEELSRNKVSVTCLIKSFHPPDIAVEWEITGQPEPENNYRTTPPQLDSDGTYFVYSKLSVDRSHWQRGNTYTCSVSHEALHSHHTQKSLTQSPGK
Sequence of mAb ZTS-361 (as listed by the source): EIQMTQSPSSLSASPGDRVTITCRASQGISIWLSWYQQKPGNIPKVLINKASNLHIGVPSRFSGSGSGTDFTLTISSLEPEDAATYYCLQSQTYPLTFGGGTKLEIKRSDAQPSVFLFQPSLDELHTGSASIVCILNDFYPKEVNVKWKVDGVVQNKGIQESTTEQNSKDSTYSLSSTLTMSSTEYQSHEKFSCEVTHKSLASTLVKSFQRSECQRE
The test system of test [3] is full length equine IL-31. In words: Dog immunogenicity study, serum titers by indirect ELISA to equine IL-31. It is filed as in vivo. The conditions noted are these: beagle dogs, 10 μg/dose s.c. days 0, 28, 56, ZA-01 adjuvant. From the text:
(§1) An immunogenicity study was undertaken to assess the ability of CRM-197-conjugated IL-31 15H05 mimotopes to generate an epitope-specific immune response driven towards the relevant region on the IL-31 protein where antibody 15H05 binds and neutralizes the cytokines ability to activate the IL-31Ra:OSMR co-receptor. The study design is depicted in FIG. 14. Purebred male beagle dogs were subcutaneously administered the conjugated IL-31_15H05 mimotopes adjuvanted with ZA-01. […] Control groups were included containing ZA-01 adjuvant CRM-197 alone (T01) and CRM-197 conjugated feline IL-31 (SEQ ID NO: 159; Feline_IL-31_E_coli), the corresponding nucleotide sequence for which is (SEQ ID NO: 160; Feline_IL-31_E_coli) in ZA-01 (T02). 10 μg/dose of each adjuvanted mimotope or control was administered subcutaneously on days 0, 28, and 56 (0.5 ml of a 20 μg/ml solution). Blood for serum was taken on day 0 (pre-dose), 7, 12, 28 (pre-dose) 35, 42, 49, 56 (pre-dose), 63, 70, 77, and 84. In addition, on days 35 and 84, approximately 40 mls of blood was collected from each animal into lithium heparin tubes and processed for PBMC isolation using a standard method. […]
(§2) Serum titers from each study day indicated in section 2.3 above were assessed for each animal. Titers were determined using an indirect ELISA where a full length IL-31 protein was used as the capture material for each respective assay. […]

In test [4] the test system is full length canine IL-31. The test is described as follows: Dog immunogenicity study, serum titers by indirect ELISA to canine IL-31. The test is classed as in vivo. The conditions noted are these: beagle dogs, 10 μg/dose s.c. days 0, 28, 56, ZA-01 adjuvant; maximum dilution 1:50,000.
Sequence of full length canine IL-31 (as listed by the source): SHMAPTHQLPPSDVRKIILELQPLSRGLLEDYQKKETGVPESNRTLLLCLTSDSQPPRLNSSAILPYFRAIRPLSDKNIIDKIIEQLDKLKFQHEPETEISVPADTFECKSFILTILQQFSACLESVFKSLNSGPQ
Text: as §1, §2

Test [5] relates to full length feline IL-31 protein. In words: Dog immunogenicity study, serum titers by indirect ELISA to feline IL-31. The test is classed as in vivo, canine. As to conditions: beagle dogs, 10 μg/dose s.c. days 0, 28, 56, ZA-01 adjuvant; maximum dilution 1:50,000.
Text: as §1, §2

The subject of test [6] is full length human IL-31. The test is described as follows: Dog immunogenicity study, serum titers by indirect ELISA to human IL-31. It is filed as in vivo, canine. As to conditions: beagle dogs, 10 μg/dose s.c. days 0, 28, 56, ZA-01 adjuvant.
Text: as §1, §2

Where no end group is shown, it is not given here.

Sequence of full length equine IL-31 (as listed by the source): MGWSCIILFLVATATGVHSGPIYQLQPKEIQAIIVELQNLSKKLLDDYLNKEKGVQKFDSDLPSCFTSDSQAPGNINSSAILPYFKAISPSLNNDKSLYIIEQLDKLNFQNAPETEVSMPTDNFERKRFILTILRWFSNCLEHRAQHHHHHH

With “constrained feline IL-31 15H05 mimotope, N-AKVSMPADNFERKNFILT-C plus N and C terminal Cysteines, mT2a (CAKVSMPADNFERKNFILTC; also: constrained via terminal cysteines, mode not given here) [ZTS-563]”, the “feline antibody titers to full length feline IL-31” value in test [1] is on record as “modest response”. Besides, the “IC50, conjugated peptide” value in test [2] (CRM197 conjugated, co-incubated 1 hour with 0.2 μM mAb ZTS-361, FCWF-4 cells) turned out to be 3.384 µg/mL. Further, the “decline of potency following conjugation” value in test [2] (conjugated vs unconjugated) is listed as “approximately 3 fold”.

B1: feline IL-31 CRM: CRM-197 conjugated feline IL-31 (SEQ ID NO: 159; Feline_IL-31_E_coli), control group T02 (conjugate)
chain: MRGSHHHHHHGSSHMAPAHRLQPSDIRKIILELRPMSKGLLQDYLKKEIGLPESNHSSLPCLSSDSQLPHINGSAILPYFRAIRPLSDKNTIDKIIEQLDKLKFQREPEAKVSMPADNFERKNFILAVLQQFSACLEHVLQSLNSGPQ
modifications: conjugated to CRM-197 carrier; Amino acid sequence representing feline IL-31 protein with N-terminal His tag
Regarding B1, the “canine antibody titers (CRAR) to full length equine IL-31” value in test [3] is reported as “negligible”. For the same molecule, the “canine antibody titers to full length canine IL-31” value in test [4] was “transient CRAR”. The “canine antibody titers to full length feline IL-31” value in test [5] is “moderate and sustained antibody response”. Further, the “canine antibody titers (CRAR) to full length human IL-31” value in test [6] is recorded as “minor”.
